Changes are numbered by the printed parent chain. Numbers in names are those of the source.
T1: Human BCMA on cells (human, UniProt Q02223 1-184)
T1 construct: whole, on cells; also called hBCMA-CHO GS; Human BCMA CHO-S
T1 sequence (looked up): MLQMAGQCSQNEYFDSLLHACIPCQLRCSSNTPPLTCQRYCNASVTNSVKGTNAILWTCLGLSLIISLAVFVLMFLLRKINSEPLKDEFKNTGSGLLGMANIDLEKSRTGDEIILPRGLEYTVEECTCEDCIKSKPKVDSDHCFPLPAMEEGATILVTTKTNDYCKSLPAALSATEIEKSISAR

T2: Human BCMA-IHM (human, UniProt Q02223 1-54, limits assumed)
T2 construct: any tag or fusion partner is unknown
T2 sequence (looked up): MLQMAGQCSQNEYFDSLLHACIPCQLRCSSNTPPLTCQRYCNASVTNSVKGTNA

B1: ADI-38484 (IgG as tested in Table 2) (antibody, V domains shown)
VH: QVQLVQSGAEVKKPGSSVKVSCKASGGTFSNDVISWVRQAPGQGLEWMGVIIPIFGIANYAQKFQGRVTITADESTSTAYMELSSLRSEDTAVYYCARGRGYYSSWLHDIWGQGTMVTVSS
VL: DIQMTQSPSSLSASVGDRVTITCQASQDITNYLNWYQQKPGKAPKLLIYDASNLETGVPSRFSGSGSGTDFTFTISSLQPEDIATYYCQQAFDLITFGGGTKVEIK
B2: ADI-38484 Fab (Fab, V domains shown)
VH: B1 VH
VL: B1 VL
B3: ADI-34857 (antibody, V domains shown)
VH: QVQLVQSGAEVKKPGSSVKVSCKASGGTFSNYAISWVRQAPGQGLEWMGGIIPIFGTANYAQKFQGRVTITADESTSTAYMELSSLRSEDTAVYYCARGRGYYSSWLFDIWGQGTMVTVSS
VL: B1 VL
notes: also called BCMA parent antibody ADI-34857
B4: ADI-38497 Fab (Fab, V domains shown)
VH: QLQLQESGPGLVKPSETLSLTCTVSGGSIVSSSYYWTWIRQPPGKGLEWIGSISIAGSTYYNPSLKSRVTISVDTSKNQFSLKLSSVTAADTAVYYCARDRGDQILDVWSQGTMVTVSS
VL: DIQMTQSPSSLSASVGDRVTITCRASQSISRYLNWYQQKPGKAPKLLIYAASSLQSGVPSRFSGSGSGTDFTLTISSLQPEDFATYYCQQKYFDITFGGGTKVEIK
B5: ADI-34861 (antibody, V domains shown)
VH: B4 VH with V30S, T37G, I55Y, A56S, Q104T, S110G
VL: B4 VL
notes: also called BCMA parent antibody ADI-34861
B6: ADI-38497 (IgG as tested in Table 2) (antibody, V domains shown)
VH: B4 VH
VL: B4 VL
B7: anti-P329G mutation-specific single chain antibody-rabbit Fc fusion protein (Fc fusion)
chain: EVQLVESGGGLVQPGGSLRLSCAASGFTFSRYWMNWVRQAPGKGLEWVGEITPDSSTINYAPSLKGRFTISRDNAKNSLYLQMNSLRAEDTAVYYCARPYDYGAWFASWGQGTLVTVSSGGGGSGGGGSGGGGSGGGGSQAVVTQEPSLTVSPGGTVTLTCRSSTGAVTTSNYANWVQEKPDHLFTGLIGGTNKRAPGTPARFSGSLLGGKAALTLSGAQPEDEAEYYCALWYSNHWVFGGGTKLTVLGGGGSSKPTCPPPELLGGPSVFIFPPKPKDTLMISRTPEVTCVVVDVSQDDPEVQFTWYINNEQVRTARPPLREQQFNSTIRVVSTLPIAHQDWLRGKEFKCKVHNKALPAPIEKTISKARGQPLEPKVYTMGPPREELSSRSVSLTCMINGFYPSDISVEWEKNGKAEDNYKTTPAVLDSDGSYFLYSKLSVPTSEWQRGDVFTCSVMHEALHNHYTQKSISRSPGK
notes: scFv of the P329G CAR extracellular domain fused to rabbit Fc; also called anti-PG scFv fusion protein; anti-PG scFv

Experiments:
[1] = molecular target: T1, Human BCMA on cells; assay: cell binding on human BCMA CHO-S cells
[2] = molecular target: T1, Human BCMA on cells; assay: cell binding on H929 cells (human BCMA)
[3] = molecular target: T2, Human BCMA-IHM; assay: Biacore (SPR), Fab, human BCMA-IHM, monovalent
[4] = molecular target: T2, Human BCMA-IHM; assay: ForteBio (BLI), IgG, human BCMA-IHM, monovalent
[5] = molecular target: Cynomolgus monkey BCMA-Fc (cynomolgus monkey, UniProt A0A2K5UD97 1-53); assay: ForteBio (BLI), IgG, cynomolgus monkey BCMA-Fc, avid
[6] = molecular target: T3, ADI-38497 WT antibody; assay: SPR (Biacore T200), avidity format: ADI-38497 WT IgG captured on anti-Fab IgG on an HLC chip, anti-PG scFv fusion protein in the mobile phase
T3 construct: also called WT BCMA antibody
Protocol: The assay procedure was performed using a 10-fold dilution of 10×HBS-EP+(BR-1006-69, Cytiva) as the experimental buffer. […] A gradient dilution of anti-PG scFv (concentration gradient of 1.25 nM-40 nM, 2-fold dilution) was flowed over the chip surface from low to high concentration in a flow rate of 30 μl/min, with an association time of 180 s and a dissociation time of 300 s. Finally, the chip was regenerated with 10 mM glycine-HCl, pH 1.5 (BR-1003-54, Cytiva).
The data results were analyzed by Biacore T200 analysis software (version 3.1) using a 1:1 binding model.

Chain of Cynomolgus monkey BCMA-Fc (A0A2K5UD97 entry or part of it): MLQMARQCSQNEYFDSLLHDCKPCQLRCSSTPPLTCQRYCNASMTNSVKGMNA

Binder	Cell Binding, FOB (Fold Over Background) [1]	Cell Binding, FON (Fold Over Negative) [2]	other results
B1	11 fold	35 fold	
B2			Kd [3]: 0.0132 nM
B3	2 fold	5 fold	Kd [4]: 27.7 nM; Kd [5]: 5.93 nM
B4			Kd [3]: 0.104 nM
B5	4 fold	6 fold	
B6	8 fold	26 fold	
B7			binding result [6]: no binding
